# Source: US20130064825A1 (Amgen, published 2013)
# B1: mouse PCSK9, 8xHIS tagged (enzyme, UniProt Q80W65 35-694, looked up)
# chain: QDEDGDYEELMLALPSQEDGLADEAAHVATATFRRCSKEAWRLPGTYIVVLMEETQRLQIEQTAHRLQTRAARRGYVIKVLHIFYDLFPGFLVKMSSDLLGLALKLPHVEYIEEDSFVFAQSIPWNLERIIPAWHQTEEDRSPDGSSQVEVYLLDTSIQGAHREIEGRVTITDFNSVPEEDGTRFHRQASKCDSHGTHLAGVVSGRDAGVAKGTSLHSLRVLNCQGKGTVSGTLIGLEFIRKSQLIQPSGPLVVLLPLAGGYSRILNAACRHLARTGVVLVAAAGNFRDDACLYSPASAPEVITVGATNAQDQPVTLGTLGTNFGRCVDLFAPGKDIIGASSDCSTCFMSQSGTSQAAAHVAGIVARMLSREPTLTLAELRQRLIHFSTKDVINMAWFPEDQQVLTPNLVATLPPSTHETGGQLLCRTVWSAHSGPTRTATATARCAPEEELLSCSSFSRSGRRRGDWIEAIGGQQVCKALNAFGGEGVYAVARCCLVPRANCSIHNTPAARAGLETHVHCHQKDHVLTGCSFHWEVEDLSVRRQPALRSRRQPGQCVGHQAASVYASCCHAPGLECKIKEHGISGPSEQVTVACEAGWTLTGCNVLPGASLTLGAYSVDNLCVARVHDTARADRTSGEATVAAAICCRSRPSAKASWVQ
# notes: also called mPCSK9-8xHIS; mPCSK9; not shown: 8xHIS tag
# B2: 16F12, anti-PCSK9 huIgG4 (antibody, V domains shown)
# VH: QVHLVESGGGVVQPGRSLRLSCAASGFTFNSFGMHWVRQAPGKGLEWVALIWSDGSDEYYADSVKGRFTISRDNSKNTLYLQMNSLRAEDTAVYYCARAIAALYYYYGMDVWGQGTTVTVSS
# VL: QSVLTQPPSVSAAPGQKVTISCSGSSSNIGNNFVSWYQQLPGTAPKLLIYDYNKRPSGIPDRFSGSKSGTSATLGITGLQTGDEADYYCGTWDSSLSAYVFGTGTRVTVLQ
# notes: also called 16F12.1
# Columns and labels:
# [1] = target: T1, human PCSK9 (proprotein convertase subtilisin/kexin type 9), wild type (human, UniProt Q8NBP7 31-692); assay: competition ELISA: biotinylated WT PCSK9 (100 ng/mL) pre-incubated with 11F1, binding to captured LDLR; average of 3
# T1 construct: also called hPCSK9; WT PCSK9
# human PCSK9 D374Y mutant [2] = target: T2, human PCSK9 D374Y mutant (human, UniProt Q8NBP7 31-692, biotinylated (sites not given) in the ELISA formats); assay: blocking ELISA: biotinylated D374Y PCSK9 (20 ng/mL) pre-incubated with 11F1, added to plate-captured LDLR; blocked ligand LDLR; streptavidin-HRP, OD450
# T2 construct: also called D374Y PCSK9; huPCSK9 (D374Y)
# furin (R&D Systems) = furin (R&D Systems) (UniProt P09958 108-715, limits assumed); assay: competition ELISA: 0.4 ug/mL 11F1 pre-incubated with soluble proprotein convertase (furin inhibitor present), then added to plate-captured biotinylated PCSK9; OD450
# human PCSK9 D374Y mutant [3] = target: T2, human PCSK9 D374Y mutant; assay: competition ELISA: biotinylated D374Y PCSK9 (20 ng/mL) pre-incubated with 11F1, binding to captured LDLR; average of 3
# human PCSK9 D374Y mutant [4] = target: T2, human PCSK9 D374Y mutant; assay: competition ELISA: biotinylated D374Y PCSK9 (20 ng/mL) pre-incubated with 11F1, binding to captured LDLR
# [5] = target: T1, human PCSK9 (proprotein convertase …); assay: competition ELISA: biotinylated WT PCSK9 (100 ng/mL) pre-incubated with 11F1, binding to captured LDLR
# [6] = target: T1, human PCSK9 (proprotein convertase …); assay: blocking ELISA: biotinylated WT PCSK9 (100 ng/mL) pre-incubated with 11F1, added to plate-captured LDLR; blocked ligand LDLR; streptavidin-HRP, OD450
# [7] = target: T1, human PCSK9 (proprotein convertase …); assay: cell-based or functional assay
# human PCSK9 D374Y mutant [8] = target: T2, human PCSK9 D374Y mutant; assay: cell-based or functional assay
# 31H4, anti-PCSK9 huIgG4 = target: T3, 31H4, anti-PCSK9 huIgG4; assay: KinExA; mPCSK9 is varied, 31H4 is fixed at 100 pM; free 31H4.1 measured
# T3 construct: also called 31H4.1; 31H4 IgG4
# 16F12, anti-PCSK9 huIgG4 = target: B2; assay: KinExA; mPCSK9 is varied, 16F12 is fixed at 100 pM; free 16F12 measured
# [9] = target: B1; assay: SPR (Biacore 2000), antibody amine-coupled on CM5 chip, PCSK9 injected, pH 7.4
# [10] = target: B1; assay: KinExA solution equilibrium titration; title: 100pM 16F12 + (1pM ~ 10nM) mPCSK9
# [11] = target: B1; assay: Biacore solution equilibrium assay: PCSK9 mixed with 21B12.1, free PCSK9 read on immobilised 21B12
# [12] = target: B1; assay: SPR (Biacore 2000), antibody amine-coupled on CM5 chip, PCSK9 injected, pH 7.4; BIAcore (Table 7.1), not the assay of Table 8.2
# T3 sequence (VL, as listed by the source, chain 2 of 2, other chains not shown): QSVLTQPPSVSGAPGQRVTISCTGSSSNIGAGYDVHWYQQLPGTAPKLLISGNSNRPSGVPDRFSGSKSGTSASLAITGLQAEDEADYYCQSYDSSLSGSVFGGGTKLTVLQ
# Chain of furin (R&D Systems) (P09958 108-715 limits assumed): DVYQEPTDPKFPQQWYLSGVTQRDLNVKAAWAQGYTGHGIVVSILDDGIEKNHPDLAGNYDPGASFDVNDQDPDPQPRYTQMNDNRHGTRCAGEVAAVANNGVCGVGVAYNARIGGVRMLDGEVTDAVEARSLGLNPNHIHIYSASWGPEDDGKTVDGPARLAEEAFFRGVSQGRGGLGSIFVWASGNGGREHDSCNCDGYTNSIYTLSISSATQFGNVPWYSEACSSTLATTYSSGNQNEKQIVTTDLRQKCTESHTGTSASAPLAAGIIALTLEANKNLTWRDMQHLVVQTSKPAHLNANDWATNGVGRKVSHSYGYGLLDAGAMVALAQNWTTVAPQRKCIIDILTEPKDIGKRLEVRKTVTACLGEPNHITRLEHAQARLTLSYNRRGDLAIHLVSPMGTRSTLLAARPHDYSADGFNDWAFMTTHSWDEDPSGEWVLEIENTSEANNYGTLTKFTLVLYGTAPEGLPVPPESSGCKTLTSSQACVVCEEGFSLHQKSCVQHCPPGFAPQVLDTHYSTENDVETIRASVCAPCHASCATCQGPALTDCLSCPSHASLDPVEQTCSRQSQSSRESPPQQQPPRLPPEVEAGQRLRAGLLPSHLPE
binder,measurement,setting,value
"11F1, anti-PCSK9 antibody (antibody, V domains shown, it was detected with anti-human Fc) VH: EVQLVESGGGLVQPGGSLRLSCAASGFTFSNYWMSWVRQAPGKGLEWVASIKQDGSEKYYVDSVKGRFAISRDNAKNSLFLQMNSLRAEDTAVYYCARDLVLMVYDIDYYYYGMDVWGQGTTVTVSS VL: not shown",IC50,[1],5.9 nM
same,IC50 (read off the curve),human PCSK9 D374Y mutant [2],~10 nM
same,binding result,furin (R&D Systems),no binding (tested: 20 ug/ml)
same,IC50,human PCSK9 D374Y mutant [3],9.1 nM
same,IC50,human PCSK9 D374Y mutant [4],7.3 to 10.1 nM
same,IC50,[5],4.4 to 8.1 nM
same,IC50 (read off the curve),[6],~5 nM
same,"EC50, LDL uptake in HepG2 cells (BODIPY-LDL)",[7],124 nM
same,"EC50, LDL uptake in HepG2 cells (BODIPY-LDL)",human PCSK9 D374Y mutant [8],35.3 nM
B1,IC50 (read off the curve),"31H4, anti-PCSK9 huIgG4",~0.6 nM
same,IC50 (read off the curve),"16F12, anti-PCSK9 huIgG4",~0.4 nM
B2,Kd,[9],6.4 nM
same,Kd,[10],0.223 nM
"21B12, anti-PCSK9 huIgG4 (antibody, V domains shown, also called 21B12.1; 21B12 IgG4) VH: QVQLVQSGAEVKKPGASVKVSCKASGYTLTSYGISWVRQAPGQGLEWMGWVSFYNGNTNYAQKLQGRGTMTTDPSTSTAYMELRSLRSDDTAVYYCARGYGMDVWGQGTTVTVSS VL: QSALTQPASVSGSPGQSITISCTGTSSDVGGYNSVSWYQQHPGKAPKLMIYEVSNRPSGVSNRFSGSKSGNTASLTISGLQAEDEADYYCNSYTSTSMVFGGGTKLTVLQ",Kd,[11],17 nM
same,Kd,[12],460 nM
